# Source: paper PMC11602130 (Nucleic Acids Research, 2024)
# Molecular target: CSA (human, untagged after removal of GST) (human, UniProt Q13216 1-396)
# Test: pull-down
# CSA (human, untagged after removal of GST), sequence (Q13216 whole entry): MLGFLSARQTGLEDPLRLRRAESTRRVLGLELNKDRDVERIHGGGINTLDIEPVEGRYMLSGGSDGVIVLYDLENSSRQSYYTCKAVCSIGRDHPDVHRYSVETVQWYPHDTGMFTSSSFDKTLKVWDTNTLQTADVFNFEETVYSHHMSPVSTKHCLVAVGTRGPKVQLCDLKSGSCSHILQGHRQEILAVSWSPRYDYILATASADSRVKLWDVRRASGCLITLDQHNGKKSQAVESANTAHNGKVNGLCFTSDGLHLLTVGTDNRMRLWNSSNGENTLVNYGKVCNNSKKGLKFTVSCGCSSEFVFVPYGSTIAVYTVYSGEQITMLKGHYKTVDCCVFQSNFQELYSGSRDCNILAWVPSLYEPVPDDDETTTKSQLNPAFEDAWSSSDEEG
binder,measurement,value
"His-STK19 (human STK19S, 254aa isoform) (natural protein, UniProt P49842 1-254, looked up) MSWKRHHLIPETFGVKRRRKRGPVESDPLRGEPGSARAAVSELMQLFPRGLFEDALPPIVLRSQVYSLVPDRTVADRQLKELQEQGEIRIVQLGFDLDAHGIIFTEDYRTRVLKACDGRPYAGAVQKFLASVLPACGDLSFQQDQMTQTFGFRDSEITHLVNAGVLTVRDAGSWWLAVPGAGRFIKYFVKGRQAVLSMVRKAKYRELLLSELLGRRAPVVVRLGLTYHVHDLIGAQLVDCISTTSGTLLRLPET",binding result,binds
